Patent US20200024320A1 (published 2020)
Where no end group is shown, it is not given here.

T1: MBP-RAMP2 ECD [L106R]-(GS)5-CLR ECD-H6 fusion protein (human, UniProt O60895 43-143; Q16602 29-144)
T1 chain: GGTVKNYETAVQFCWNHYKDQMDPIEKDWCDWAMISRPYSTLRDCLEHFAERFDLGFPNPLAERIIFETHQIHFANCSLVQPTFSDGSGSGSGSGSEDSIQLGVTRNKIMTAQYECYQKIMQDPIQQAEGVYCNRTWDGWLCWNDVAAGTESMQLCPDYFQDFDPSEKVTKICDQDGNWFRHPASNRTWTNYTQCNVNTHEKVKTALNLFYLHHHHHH


Target: T1, MBP-RAMP2 ECD [L106R]-(GS)5-CLR ECD-H6 …
Assay: FP competition; KI at RAMP1-CLR ECD over KI at RAMP2-CLR ECD

DKDNVAPRSKISPFGY-NH2 [AM(37-52)NH2 [Q50F]] was tested, and the “Receptor Selectivity (fold)” value was 5 fold.

Target: T1, MBP-RAMP2 ECD [L106R]-(GS)5-CLR ECD-H6 …
Assay: AlphaLISA competition, Biotin-AM probe

DKDNVAPRSKISPWGY-NH2 [AM(37-52)NH2 [Q50W]] was tested, and the “fold increase in affinity (against AM(37-52)NH2)” value was roughly 100 fold.

Target: T1, MBP-RAMP2 ECD [L106R]-(GS)5-CLR ECD-H6 …
Assay: AlphaLISA/AlphaScreen competition, RAMP2-CLR ECD

DKDNVAPRSKISPQGY-NH2 (also called WT (AM(37-52)NH2 scaffold)) [AM(37-52)NH2] was tested, and the IC50 was 5 to 15 µM.

Target: T1, MBP-RAMP2 ECD [L106R]-(GS)5-CLR ECD-H6 …
Assay: FP competition, FITC-AM W/W probe, RAMP2-CLR ECD

DKDNVAPRWLIGPWGF-NH2 [AM(37-52)NH2 [S45W, K46L, S48G, Q50W, Y52F]] and DKDNVAPRSLISPWGY-NH2 [AM(37-52)NH2 [K46L, Q50W]] are within 1.5-fold of each other in Ki: 1.25 µM for the first, 1.66 µM for the second.

DKDNVAPRTLISPWGY-NH2 [AM(37-52)NH2[S45T, K46L, Q50W]] and DKFNVAPRSLISPWGY-NH2 [AM(37-52)NH2 [D39F, K46L, Q50W]] are within 1.5-fold of each other in Ki: 1.57 µM for the first, 1.83 µM for the second.

Going from DKKNVAPRSKISPQGY-NH2 [AM(37-52)NH2 [D39K]] to DKDNVAPRSLISPWGF-NH2 [AM(37-52)NH2 [K46L, Q50W, Y52F]], the Ki rises from 6.1 µM to 89.1 µM (15-fold).

First: DKDNVAPRWWISPWGF-NH2 [AM(37-52)NH2 [S45W, K46W, Q50W, Y52F]]
Second: DKDNVAPRWLISPWGF-NH2 [AM(37-52)NH2 [S45W, K46L, Q50W, Y52F]]
The Ki of the first is 4.1-fold higher: 16.6 µM for the first, 4.07 µM for the second. The second binds more tightly here.

DKDNVAPRSKISPQGY-NH2 (also called WT (AM(37-52)NH2 scaffold)) [AM(37-52)NH2] and DKFNVAPRSLISPWGF-NH2 [AM(37-52)NH2 [D39F, K46L, Q50W, Y52F]] are within 1.5-fold of each other in Ki: 20.4 µM for the first, 30.3 µM for the second.

Going from DKDNVAPRSKISPWGY-NH2 [AM(37-52)NH2 [Q50W]] to DKDNVAPRWKISPWGY-NH2 (also called S45W/Q50W double mutant) [AM(37-52)NH2 [S45W, Q50W]], the Ki falls from 0.316 µM to 0.0813 µM (3.9-fold). The second binds more tightly here.

Going from DKDNVAPRTWISPWGY-NH2 [AM(37-52)NH2[S45T, K46W, Q50W]] to DKDNVAPRWMISPWGF-NH2 [AM(37-52)NH2 [S45W, K46M, Q50W, Y52F]], the Ki falls from 12.5 µM to 7.76 µM (1.6-fold). The second binds more tightly here.

DKDNVAPRSKISPFGY-NH2 [AM(37-52)NH2 [Q50F]] and FVPTDVGPWSF-NH2 [CGRP(27-37)NH2 [N31D, S34P, K35W, A36S]] are within 1.5-fold of each other in Ki: 2.14 µM for the first, 2.45 µM for the second.

First: FVPTDVGPWSY-NH2 [CGRP(27-37)NH2 [N31D, S34P, K35W, A36S, F37Y]]
Second: FVPTDTGPWSF-NH2 [CGRP(27-37)NH2 [N31D, V32T, S34P, K35W, A36S]]
The Ki of the first is 8.5-fold lower: 0.324 µM for the first, 2.75 µM for the second.

FVPTDTGPWGY-NH2 [CGRP(27-37)NH2 [N31D, V32T, S34P, K35W, A36G, F37Y]] showed a Ki of 14.5 µM.

DKDNVAPRWLIGPWGF-NH2 [AM(37-52)NH2 [S45W, K46L, S48G, Q50W, Y52F]] and DKDNVAPRSLISPWGY-NH2 [AM(37-52)NH2 [K46L, Q50W]] are within 0.2 log units of each other in pKI: 5.9 for the first, 5.78 for the second.

DKDNVAPRTLISPWGY-NH2 [AM(37-52)NH2[S45T, K46L, Q50W]] and DKFNVAPRSLISPWGY-NH2 [AM(37-52)NH2 [D39F, K46L, Q50W]] are within 0.2 log units of each other in pKI: 5.8 for the first, 5.74 for the second.

First: DKKNVAPRSKISPQGY-NH2 [AM(37-52)NH2 [D39K]]
Second: DKDNVAPRSLISPWGF-NH2 [AM(37-52)NH2 [K46L, Q50W, Y52F]]
The pKI of the first is higher: 5.22 for the first, 4.05 for the second.

Going from DKDNVAPRWWISPWGF-NH2 [AM(37-52)NH2 [S45W, K46W, Q50W, Y52F]] to DKDNVAPRWLISPWGF-NH2 [AM(37-52)NH2 [S45W, K46L, Q50W, Y52F]], the pKI rises from 4.78 to 5.39.

DKDNVAPRSKISPQGY-NH2 (also called WT (AM(37-52)NH2 scaffold)) [AM(37-52)NH2] and DKFNVAPRSLISPWGF-NH2 [AM(37-52)NH2 [D39F, K46L, Q50W, Y52F]] are within 0.2 log units of each other in pKI: 4.69 for the first, 4.55 for the second.

First: DKDNVAPRSKISPWGY-NH2 [AM(37-52)NH2 [Q50W]]
Second: DKDNVAPRWKISPWGY-NH2 (also called S45W/Q50W double mutant) [AM(37-52)NH2 [S45W, Q50W]]
The pKI of the first is lower: 6.5 for the first, 7.09 for the second.

Compared with DKDNVAPRTWISPWGY-NH2 [AM(37-52)NH2[S45T, K46W, Q50W]], DKDNVAPRWMISPWGF-NH2 [AM(37-52)NH2 [S45W, K46M, Q50W, Y52F]] is higher in pKI: 4.9 for the first, 5.11 for the second.

DKDNVAPRSKISPFGY-NH2 [AM(37-52)NH2 [Q50F]] and FVPTDVGPWSF-NH2 [CGRP(27-37)NH2 [N31D, S34P, K35W, A36S]] are within 0.2 log units of each other in pKI: 5.67 for the first, 5.61 for the second.

Compared with FVPTDVGPWSY-NH2 [CGRP(27-37)NH2 [N31D, S34P, K35W, A36S, F37Y]], FVPTDTGPWSF-NH2 [CGRP(27-37)NH2 [N31D, V32T, S34P, K35W, A36S]] is lower in pKI: 6.49 for the first, 5.56 for the second.

FVPTDTGPWGY-NH2 [CGRP(27-37)NH2 [N31D, V32T, S34P, K35W, A36G, F37Y]] gave a pKI of 4.84.
